According to patent publication US20200040083A1:
Several values for one entry are separate records, joined by “and”; a condition that tells them apart may be missing. Equal entries are not always repeated.

Target: IL-2Rβ (R&D Systems, Minneapolis, Minn.) (UniProt P14784)
Experiment: Octet (BLI), AHC capture
Settings: Fc fusion

Chain of IL-2Rβ (R&D Systems, Minneapolis, Minn.) (P14784 27-240): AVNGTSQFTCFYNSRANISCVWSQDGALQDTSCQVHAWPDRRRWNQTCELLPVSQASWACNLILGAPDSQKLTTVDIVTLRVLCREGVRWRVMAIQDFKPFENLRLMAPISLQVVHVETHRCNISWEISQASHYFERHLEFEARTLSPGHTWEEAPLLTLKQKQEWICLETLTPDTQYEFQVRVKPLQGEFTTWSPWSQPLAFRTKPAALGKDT

Kd	Substance
3.06 nM and 3 nM	XENP21479 (from UniProt P0DOX5 218-449; P40933 49-162)
6.76 nM and 3 nM	XENP21478 (from UniProt P0DOX5 218-449)
